Patent US20240279288A1, “APPLICATION OF PLANT JAZ PROTEINS AND DERIVED POLYPEPTIDES IN PREVENTION AND TREATMENT OF HUMAN AND ANIMAL TUMORS” (ANYANG INSTITUTE OF SINO-COTTON INDUSTRY INNOVATION, priority 2021, published 2024)

Key:
[1] = system: GhCOI1; test: Luciferase experiment in tobacco leaves with GhCOI1; type: binding, cotton; settings: no fluorescence on the control
Description: Method of the luciferase experiment: GhJAZ1 (corresponding encoding gene sequence set forth in SEQ ID No. 39) was subcloned into pCAMBIA-CLuc vector (Chen, H., et al. “Firefly Luciferase Complementation Imaging Assay for Protein-Protein Interactions in Plants.” Plant Physiology 146.2(2008):368-376.) between KpnI and SalI cleavage sites, and the transcription factors such as GhMYC2 (corresponding encoding gene sequence set forth in SEQ ID No. 72), GhNINJA (corresponding encoding gene sequence set forth in SEQ ID No. 74), and GhCOI1 (corresponding encoding gene sequence set forth in SEQ ID No. 80) were subcloned into pCAMBIA-NLuc (Chen, H., et al. “Firefly Luciferase Complementation Imaging Assay for Protein-Protein Interactions in Plants.” Plant Physiology 146.2(2008):368-376.) between KpnI and SalI cleavage sites, respectively. […] Luciferase substrates were applied at the infected leaves before taking images and placed in a dark room for at least 6 min to quench fluorescence, followed by observation on the Nightowl-II LB983 instrument, using IndigoBasic software under the luciferase-5 min setting conditions.

[2] = system: MCF7 breast cancer cells; test: Cell cycle detection (PI DNA content), MCF7; type: cell-based, human; settings: 0.691 μM, 24 h, vs PBS
Experimental: Cell cycle detection: cells were moderately digested by trypsin, and collected by centrifugation with supernatant removed, and then cells were washed with PBS, and collected by centrifugation at 1,500 rpm for 5 minutes to prepare a single-cell suspension (at a concentration of 1×10^6/ml). 1 ml of single-cell suspension was then taken and centrifuged with the supernatant discarded, and then 500 μl of 70% pre-cooled ethanol were added to fix the cells overnight at 4° C. The next day, cells were collected by centrifugation, resuspended with 1 ml of PBS and centrifuged, and then 100 μl of RNase A solution were added to the cell pellet, followed by placement in water bath at 37° C. for 30 min, and then 400 μl of PI staining solution was added and mixed well, followed by incubation at 4° C. in dark for 30 min and detection on the instrument to record under red fluorescence at the excitation wavelength of 488 nm. Specifically, a DNA content detection kit (cell cycle) (Solarbio, Cat. No.: CA1510) was used.

[3] = target: T1, c-Myc-215aa (Homo sapiens, UniProt P01106); test: Yeast two hybrid and LUC with c-Myc truncated to first 215 amino acids; type: binding
T1 construct: expressed in transfected cells
T1 sequence (P01106 1-215): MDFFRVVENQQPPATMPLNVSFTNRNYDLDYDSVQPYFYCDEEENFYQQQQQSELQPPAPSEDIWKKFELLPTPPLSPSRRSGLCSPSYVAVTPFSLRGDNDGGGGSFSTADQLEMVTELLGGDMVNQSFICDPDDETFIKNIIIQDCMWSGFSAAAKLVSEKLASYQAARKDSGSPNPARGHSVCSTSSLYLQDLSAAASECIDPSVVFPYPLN
Description: […]

Chain of GhCOI1 (as listed by the source): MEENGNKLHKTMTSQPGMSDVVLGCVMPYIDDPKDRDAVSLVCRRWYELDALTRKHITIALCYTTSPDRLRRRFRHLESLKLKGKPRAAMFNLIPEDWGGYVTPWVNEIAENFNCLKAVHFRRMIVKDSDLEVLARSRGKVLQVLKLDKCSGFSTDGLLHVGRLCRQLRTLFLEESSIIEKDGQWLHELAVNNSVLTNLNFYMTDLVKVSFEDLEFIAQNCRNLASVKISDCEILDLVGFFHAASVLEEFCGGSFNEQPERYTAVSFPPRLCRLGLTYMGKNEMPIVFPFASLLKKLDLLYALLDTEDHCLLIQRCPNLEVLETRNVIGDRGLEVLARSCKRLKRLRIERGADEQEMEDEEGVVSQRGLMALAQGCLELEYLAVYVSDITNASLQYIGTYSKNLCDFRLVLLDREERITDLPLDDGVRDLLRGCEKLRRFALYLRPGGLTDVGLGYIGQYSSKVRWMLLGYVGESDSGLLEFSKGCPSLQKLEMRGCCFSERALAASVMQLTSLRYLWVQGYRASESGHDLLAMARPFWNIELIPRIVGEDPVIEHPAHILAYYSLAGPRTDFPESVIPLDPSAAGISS

B1: GhJAZ1: cotton JAZ1 protein, gene number Gh_A05G0260, sequence SEQ ID No. 4; prokaryotically expressed with His tag, about 30 KD (protein)
chain: MSSCSESTAMKPARSPEKPSFAQTCNLLSQYLKEKGSFGDLSLGMTCNVEANGTPVVPPPTMNLFPLNDKSDDVCGRNGGNPKNLTSMDLFPQQAGLASKDDSPNKLEPQTAPMTIFYGGQVIVFNDFPANKAKEIMLLASNSSSQSNNSFNPIPFTSSIARSPIESSIGVPPTSKPVHPAQRAVPGDLPIARRASLHRFLEKRKDRITAKAPYQINNSAAAPSLSGDNKSWLGLAAQSP
modifications: His tag
notes: prokaryotically expressed with His tag, about 30 KD
- fluorescence with GhCOI1 after applying luciferase substrate [1]: weaker fluorescence
- proportion of G2-M phase cells (MCF7) [2]: increase
- proportion of S-phase cells (MCF7) [2]: decrease
- interaction with first 215 amino acids truncated c-Myc [3]: strong interactions
